The labels stand for the following.
B1: HIG-1-Flag (human HIG-1 polypeptide with a Flag tag downstream, made in E. coli as GST-HIG-1-Flag, GST cleaved off with PreScission Protease) (other, UniProt Q9Y241 1-93, looked up)
chain: MSTDTGVSLPSYEEDQGSKLIRKAKEAPFVPVGIAGFAAIVAYGLYKLKSRGNTKMSIHLIHMRVAAQGFVVGAMTVGMGYSMYREFWAKPKP
notes: Expressed from pGST-HIG-1-Flag (pGEX 6P-1); also called HIG-1-Flag protein; not shown: Flag tag downstream of HIG-1
B2: monoclonal antibody produced by hybridoma ISK-MMH-TK2 (antibody, V domains shown)
VH: DVQLQDSGPGLVKPSQTVSLTCTVTGISITTGNFRWSWIRQFPGNKLEWIGYIYYSGTITYNPSLTSRTTITRDTSKNQFFLEMNSLTAEDTATYYCARELYGYGYFDVWAAGTTVTVSS
VL: DVVMTQIPLSLPVSLGDQASISCRSTQSLVHSNGNTYLHWFLQKPGQSPKLLIYKVSNRFSGVPDRFSGSGSGTDFTLKISRVEAEDLGVYFCSQSKYVPRTFGGGTKLEIKR
notes: used as hybridoma culture supernatant; The whole entries are named; they hold leader and primer-derived residues, X and *; also called FERM BP-11266
B3: monoclonal antibody produced by hybridoma ISK-MMH-TK1 (antibody, V domains shown)
VH: EVQLQQSGPELVKPGASVKISCKTSGYTFTKYTMHWVKQSHGKSLEWIGGINPNNGGSRYDQKFRGKATLTVDKSSSTAYMEFRSLTSEDSAVYYCARDFVYWGQGTLVTVSA
VL: DVLMTQTPLSLPVSLGDQASISCRSSQSIVHSNGNTYLEWYLQKPGQSPKLLIYKVSNRFSGVPDRFSGSGSGTDFTLKISRVEAEDLGVYYCFQGSHVPWTFGGGTKLEIKR
notes: used as hybridoma culture supernatant; The whole entries are named; they hold leader and primer-derived residues, X and * that are not part of the mature antibody; also called FERM BP-11267

The target in experiment [1] is B2. Briefly: competitive ELISA: HIG-1-Flag coated at 2.5 µg/mL, ISK-MMH-TK2 culture supernatant (diluted 3,200-fold) premixed with soluble HIG-1-Flag as competing agent, AP-labelled anti-mouse IgG, A405nm. The protocol:
Specifically, the HIG-1-Flag obtained in Example 2 as a solid-phase antigen was coated at a concentration of 2.5 μg/mL (50 mM carbonate buffer solution, pH 9.6, Sigma, No. C3041) in an amount of 50 μL per well, onto a plate at room temperature for 1 hour. Washing was performed 3 times with PBS-T, and then blocking was conducted with PBS (10% FBS-PBS) containing 10% FBS for 1 hour. After washing was performed 3 times with PBS-T, the PBS-T diluent of the antibody culture supernatant obtained in Example 1 was mixed with a diluted solution of a competitive substance (serial dilution with PBS-T) and reacted at room temperature for 1 hour. The reaction mixture was placed in a plate in an amount of 50 W., per well and allowed to stand for 1 hour at room temperature. […] As competitive substances, a HIG-1-Flag (on which 3-fold serial dilution was performed 8 times from 0.167 μg/mL), KLH (on which 3-fold serial dilution was performed 8 times from 100 μg/mL), or GST (on which 3-fold serial dilution was performed 8 times from 100 μg/mL) was used. After washing was performed using PBS-T 3 times, the alkaline phosphatase-labeled secondary antibody (anti-mouse IgG) diluted 1,000-fold with 10% FBS-PBS-T was placed in an amount of 50 per well and allowed to stand at room temperature for 1 hour. […] After reaction, the 405 nm absorbance was measured.

For experiment [2], the target named is B1. Description: competitive ELISA, coated HIG-1-Flag, soluble HIG-1-Flag as competitor. The protocol: Specifically, the HIG-1-Flag obtained in Example 2 as a solid-phase antigen was coated at a concentration of 2.5 μg/mL (50 mM carbonate buffer solution, pH 9.6, Sigma, No. C3041) in an amount of 50 μL per well, onto a plate at room temperature for 1 hour. Washing was performed 3 times with PBS-T, and then blocking was conducted with PBS (10% FBS-PBS) containing 10% FBS for 1 hour. After washing was performed 3 times with PBS-T, the PBS-T diluent of the antibody culture supernatant obtained in Example 1 was mixed with a diluted solution of a competitive substance (serial dilution with PBS-T) and reacted at room temperature for 1 hour. The reaction mixture was placed in a plate in an amount of 50 W., per well and allowed to stand for 1 hour at room temperature. […] After reaction, the 405 nm absorbance was measured.
These antibodies were both capable of quantitatively measuring a HIG-1-Flag in the range of 0.7 to 6.2 ng/mL. The dissociation constant Kd of the monoclonal antibody to a HIG-1-Flag was calculated with reference to “Antibody engineering; A Practical Approach” (edited by McCafferty J., et al.), Chapter 4, 77-97, IRL Press Oxford.
For orientation: An ELISA detects its analyte on a solid surface through an enzyme-linked reagent.

As a reminder, the Kd is a measure of binding affinity in units of concentration. Higher therefore signals lower affinity.

As for B1, the “IC50 (read off the curve)” value in experiment [1] is approximately 2 ng/mL.

With B2, the dissociation constant (Kd) in experiment [2] turned out to be 0.17 nM. The same measure, in the same setting: under B3 stands 0.22 nM.

Source of the values: patent US20120244560A1 (ISHIHARA SANGYO, published 2012).
